A short description of data set [1]: Determination of sulfite reductase activity (oxidation of NADPH by sulfite, 340 nm). Format: biochemical. How it is done:
The sulfite reductase activity was measured spectrophotometrically at 340 nm under aerobic conditions by following the oxidation of NADPH by sulfite according to the method of determining enzyme activity of Siegel and others (1973). To 0.9 mL reaction mixture [0.1 M phosphate buffer (pH 7.7) containing 0.5 mM EDTA, 0.5 mM NaHSO3, 1 μM FMN, and 0.2 mM NADPH], 0.1 mL of reductase was added and incubated at 25° C. The activity was determined according to the initial velocity after the addition of reductase and corrected by the slow oxidation of NADPH in the absence of sulfite. One activity unit was defined as the amount of enzyme which catalyzed the oxidation of 1 μmol NADPH within 1 minute reaction 25° C. under the above condition.

The nature of data set [2]: Optimal pH value of the sulfite reductase. Format: biochemical. To be noted: 25° C., 5 minutes. As to the method: Optimal pH value. To 0.9 mL reaction mixture with various pHs (0.2 M citrated buffer: pH 4.0 to 6.0; 0.2 M phosphate buffer: pH 6.0 to 8.0 and 0.2 M bicarbonate buffer: pH 8.0 to 10,0; all buffers containing 0.5 mM EDTA, 0.5 mM NaHSO3, 1 μM FMN, and 0.2 mM NADPH), 0.1 mL of reductase was added and incubated at 25° C. for 5 minutes. The activity was determined from initial velocity and corrected by the oxidation of NADPH in the absence of sulfite according the method of Siegel and others (1973).

The nature of data set [3]: Optimal temperature of the sulfite reductase. The following applies: pH 7.7, 5 minutes. Format: biochemical. As to the method:
Optimal temperature. To 0.9 mL reaction mixture [0.1 M phosphate buffer (pH 7.7) containing 0.5 mM EDTA, 0.5 mM NaHSO3, 1 μM FMN, and 0.2 mM NADPH], 0.1 mL of reductase was added and incubated at various temperatures (5, 10, 15, 20, 25, 30, 35, 40, 45, 50, 55 and 60° C.) for 5 minutes. The activity was determined from initial velocity and corrected by the oxidation of NADPH in the absence of sulfite according the method of Siegel and others (1973).

Data set [4] is described as follows: Stability of low temperature storage of the enzyme solution. Format: physicochemical. As to the method: The enzyme solution was stored at 4° C. and −20° C., respectively. The residue enzyme activity was determined per constant time interval to test the stability of low-temperature storage.

Here are results for one substance from patent publication US7183091B2, “Sulfite reductase, the process for producing the same and the use thereof” (Nugen Bioscience (Taiwan) Co., Ltd., priority 2003, dated 2007).

Turning to “sulfite reductase from Saccharomyces cerevisiae: purified sulfite reductase from Saccharomyces cerevisiae (CCRC 22223), molecular weight 358,000”, the specific activity in data set [1] (Table 2, purification steps of the Saccharomyces cerevisiae enzyme) is reported as 1.34 units/mg; in data set [1] (purified enzyme, 25° C., pH 7.7), 1.34 units/mg. In addition, in data set [2], the “optimum pH” value came out at 7.3. This substance also displayed an optimum temperature in data set [3] of 25 °C. Also, the “enzyme activity after storage” value in data set [4] (enzyme solution stored for 2 months at −20° C.) is “nearly not changed”; in data set [4] (enzyme solution stored for 28 days at 4° C.), 77.8%.
